Test results from paper PMC1865072 (Nucleic Acids Research, 2007).
Where two headings read alike, the source gives them in different places.

Tests used:
Test in all cases: native MS
[1] = biological target: 15N-labelled Kis antitoxin (Killing suppressor) of the parD operon of plasmid R1 (Escherichia coli (plasmid R1))
[2] = biological target: 15N-labelled Kis antitoxin (Killing suppressor) of the parD operon of plasmid R1 (Escherichia coli (plasmid R1)); remark: listed apart in the source
[3] = biological target: the molecule itself

Sequence of 15N-labelled Kis antitoxin (Killing suppressor) of the parD operon of plasmid R1 (Escherichia coli (plasmid R1)) (P13975 whole entry): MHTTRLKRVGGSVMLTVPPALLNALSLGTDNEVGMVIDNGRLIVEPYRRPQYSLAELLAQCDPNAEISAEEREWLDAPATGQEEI

15N-labelled Kis antitoxin (Killing suppressor) of the parD operon of plasmid R1 (natural protein)
stoichiometry N (subunits in the oligomer) [1]: 2

Kid toxin (Killing determinant) of the parD operon of plasmid R1 (from UniProt P13976 24-133) (natural protein)
stoichiometry N (Kid per Kis (2:1)) [2]: 2
stoichiometry N (Kid per Kis (2:2)) [2]: 1
stoichiometry N (Kid per Kis (4:2)) [2]: 2
stoichiometry N (Kid per Kis (4:4)) [2]: 1
stoichiometry N (Kid per Kis (4:6), on the 30-bp parD DNA) [2]: 0.67
stoichiometry N (Kid per Kis (2:1)) [1]: 2
stoichiometry N (Kid per Kis (4:2)) [1]: 2

B1: Kid toxin (Killing determinant) of the parD operon of plasmid R1 (natural protein)
chain: MERGEIWLVSLDPTAGHEQQGTRPVLIVTPAAFNRVTRLPVVVPVTSGGNFARTAGFAVSLDGVGIRTTGVVRCDQPRTIDMKARGGKRLERVPETIMNEVLGRLSTILT
stoichiometry N [3]: 2 subunits in the oligomer
